Positions count from the first letter of the chain named. Several values for one entry are separate records, joined by “and”; a condition that tells them apart may be missing. Identical values can stand only once.
B1: 6A-21 (antibody, V domains shown)
VH: EVQLQQSGPELVKPGASVKMSCKASGYTFTDYFMKWVKQSHGKSLEWIGDINPKNGDTFYNQKFKGKATLTVDKSSSTAYMQLNSLTSEDSAVYYCARPGYFDVWGAGTTVTVSS
VL: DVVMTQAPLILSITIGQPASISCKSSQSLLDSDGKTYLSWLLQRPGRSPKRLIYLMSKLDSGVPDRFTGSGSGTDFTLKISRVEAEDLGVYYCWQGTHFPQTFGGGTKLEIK
notes: Mouse hybridoma antibody, tested as hybridoma supernatant (mouse IgG, detected or captured via anti-mouse IgG Fc); also called anti-MS4A6A antibody 6A-21
B2: 6A-15 (antibody, V domains shown)
VH: EVMLVESGGGLVKPGGSLKLSCAASGFTFSSHAMSWVRQTPEKRLEWVATISSGDSYTYYPDSVKGRFTISRDNAKNTLYLQMTSLRSEDTAMYYCIRHIYYGNLYYAMDYWGQGTSVTVSS
VL: DVLMTQTPLSLPVSLGDQASISCRSSQSIIHNNGNTYLEWYLQKPGQSPKLLIYKVSNRFSGVPDRFSGSGSGTYFTLKISRVEADDLGVYYCFQGSHVPWTFGGGTKLEIK
notes: Mouse hybridoma antibody, tested as hybridoma supernatant (mouse IgG, detected or captured via anti-mouse IgG Fc); also called anti-MS4A6A antibody 6A-15
B3: 6A-11 (antibody, V domains shown)
VH: EVQLQQSGPDLVKPGASVKISCKASGYSFTGYYIHWVKQSHIKSLEWIGRINPNNGATNYNQIFKDKATLTVDRSSSTAYMDLHSLTSEDSAVYYCVSTFITGWGQGTTLTVSS
VL: B2 VL with M4L, S28T, I30V, N32S, N33D, K44R, Q47L, N58I, Y75D, D86E
notes: Mouse hybridoma antibody, tested as hybridoma supernatant (mouse IgG, detected or captured via anti-mouse IgG Fc); also called anti-MS4A6A antibody 6A-11
B4: 6A-9 (antibody, V domains shown)
VH: EVQLQQSGPELVKPGASVKISCKASGYSFTGYYIHWVKESHVKSLEWIGRINPKNGVTSYNQNFKDKASLTVDRSSSTAYMDLYSLTSEDSAVYYCASTFITGWGQGTSLTVSS
VL: B2 VL with M4L, T7A, S28T, I30V, N32S, N33D, K55T, Y75D, D86E
notes: Mouse hybridoma antibody, tested as hybridoma supernatant (mouse IgG, detected or captured via anti-mouse IgG Fc); also called anti-MS4A6A antibody 6A-9
B5: 6A-18 (antibody, V domains shown)
VH: B4 VH
VL: B2 VL with M4L, T7A, S28T, I30V, N32S, N33D, K55T, Y75D, D86E
notes: Mouse hybridoma antibody, tested as hybridoma supernatant (mouse IgG, detected or captured via anti-mouse IgG Fc); also called anti-MS4A6A antibody 6A-18
B6: 6A-16 (antibody, V domains shown)
VH: B4 VH with S109T, L110V
VL: B2 VL with M4L, T7A, S28T, I30V, N32S, N33D, K55T, Y75D, D86E
notes: Mouse hybridoma antibody, tested as hybridoma supernatant (mouse IgG, detected or captured via anti-mouse IgG Fc); also called anti-MS4A6A antibody 6A-16
B7: 6A-12 (antibody, V domains shown)
VH: EVQLQQSGPELVKPGASVKISCKASGYSFTGYYMHWVKQSPEDSLEWIGAINPSTGGSTYSQKFKDKATLTVDKSSSTAYMQLKSLTSEESAVYYCTRFDGYGYWGQGTLVTVSS
VL: DIVMTQAAFSNPVTLGTSASISCRSSKSLLHSNGITYLYWYLQKPGQSLQLLIYQMSNLASGVPDRFSGSGSGTDFTLRISRVEAEDVGVYYCAQNLELPWTFGGGTKLEIK
notes: Mouse hybridoma antibody, tested as hybridoma supernatant (mouse IgG, detected or captured via anti-mouse IgG Fc); also called anti-MS4A6A antibody 6A-12
B8: 6A-14 (antibody, V domains shown)
VH: QVQLKQSGPGLVQPSQSLSITCTVSGFSLTTYGVHWVRQSPGKGLEWLGVIWSGGSTDYNAAFISRLNISKDNSKSQVFFKMNSLQANDTAIYYCARGYGSSYEYFDVWGAGTTVTVSS
VL: DIVLTQSPASLAVSLGQRATISCRASESVDSYGNSFMHWYQQKPGQPPKLLIYRASNLESGIPARFSGSGSRTDFTLTINPVEADDVATYYCQQSNEDPLTFGAGTKLELK
notes: Mouse hybridoma antibody, tested as hybridoma supernatant (mouse IgG, detected or captured via anti-mouse IgG Fc); also called anti-MS4A6A antibody 6A-14
B9: 6A-13 (antibody, V domains shown)
VH: EVKVVESGGGLVQPGGSLRLSCATAGFTFTDYYMTWVRQPPGKALEWLGFIRNKANGYTTEYNSSVKGRFTISRDNSRSILYLQMNTLRAEDSATYYCARSMDYWGQGTSVTVSS
VL: NIVMTQSPNSMSMSVGERVTLSCKASENVGTYVSWYQQKPDQSPKLLIYGASNRYTGVPDRFTGGGSATDFTLTISSVQAEDLADYHCGQTYSFPYTFGGGTKLEIK
notes: Mouse hybridoma antibody, tested as hybridoma supernatant (mouse IgG, detected or captured via anti-mouse IgG Fc); also called anti-MS4A6A antibody 6A-13
B10: 6A-22 (antibody, V domains shown)
VH: EVNLEESGGDLVQPGGSMKLSCLASGFTFSDAWMDWVRQSPEKGLEWVAEIKNKANNYVTFYAASVKGRFTISRDDSKSSVYLQMNNLRPEDTGIYFCTRGSVYGNWFPYWGQGTLVTVSA
VL: DIVMSQSPSSLAVSAGEKVTMTCKSSQSLFNSRTRKNYLTWYQQKPGQSPKVLIYWASTRESGVPDRFTGSGSGTDFSLTISSVQADDLAVYYCKQSYNLLTFGAGTRLELK
notes: Mouse hybridoma antibody, tested as hybridoma supernatant (mouse IgG, detected or captured via anti-mouse IgG Fc); also called anti-MS4A6A antibody 6A-22

Columns and labels:
[1] = biological target: T1, MS4A6A ECL2 peptide (human); test: array SPR (Carterra MX-96), antibody captured on anti-mouse IgG-Fc, ECL2 peptide injected
T1 construct: also called MS4A6A ECL-2 peptides
T1 peptide: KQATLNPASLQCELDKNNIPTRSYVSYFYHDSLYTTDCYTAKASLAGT
Protocol: Binding kinetic characterization of the purified antibodies to MS4A6A ECL1 and ECL2 peptides was performed by Carterra (South San Francisco, Calif.) using a proprietary array Surface Plasmon Resonance (SPR) instrument (MX-96) as follows. Antibodies were printed onto a CMD5OOD chip (Xantec #SPMX CMD500D lot #SC CMD500D0117.a Exp. 31.12.18) using the Continuous Flow Microspotter (CFM). First, the chip was activated with 100 mM MES pH 5.5, 100 μL EDC (133 mM final), 100 μL of S-NHS (33.3 mM final), for 7 minutes. A lawn of anti-mouse IgG-Fc (Jackson ImmunoResearch CAT #115-005-071 lot#130410) was injected for 15 minutes to establish a surface density of 10000-12000 RU, after which the chip surface was deactivated with 1 M ethanolamine at pH 8.5 for 10 minutes. Anti-MS4A6A antibodies in question, in the form of hybridoma supernatants diluted 2:1 with HBS-EP+buffer (Teknova CAT #H8022), were then printed as duplicates with a 20 minute and a 5 minutes print from the same sample solution. Control antibodies were diluted to 20 μ/ml for printing.
To perform kinetic analysis, the peptides in question were prepared in HBS-EP+buffer with lmg/ml BSA at final assay concentrations of 2000 nM, 400 nM, 80 nM, 16 nmM, and 3.2 nM. These were then injected on the chip for five minutes, followed by a seven-minute dissociation period at 8 uL per second in a non-regenerative kinetic series. Duplicate measurements for each anti-MS4A6A antibody were taken to ensure reproducibility.
Kₐ (association rate constant; Kₒₙ), Kd (dissociation rate constant; Koff) and KD (equilibrium constant) to MS4A6A ECL-2 peptides were calculated for each of the 23 anti-MS4A6A antibodies tested, the results of which are shown below in Table 5 (clones that bound too weakly to determine these values are denoted as N/A in Table 5).

[2] = biological target: T2, cynomolgus (cyno) MS4A6A (cynomolgus, UniProt Q9H2W1 1-246 (human entry)); test: flow cytometry, hybridoma supernatant, HEK293 transfected with cyno MS4A6A over parental HEK293; Screen 1
T2 construct: Full-length protein expressed in transfected HEK293, U937 or K562 cells (flow cytometry)
T2 chain: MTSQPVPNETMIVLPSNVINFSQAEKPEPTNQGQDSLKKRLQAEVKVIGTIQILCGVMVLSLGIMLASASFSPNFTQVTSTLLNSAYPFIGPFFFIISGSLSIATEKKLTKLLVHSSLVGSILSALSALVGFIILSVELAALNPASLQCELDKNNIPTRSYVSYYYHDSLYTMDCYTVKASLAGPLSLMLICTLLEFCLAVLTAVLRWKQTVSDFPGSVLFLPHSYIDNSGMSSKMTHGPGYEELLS
Protocol: (§1) Positive clones were expanded and then rescreened for specificity against HEK293 cells overexpressing cyno MS4A6A and parental HEK293 cells. Briefly, previously prepared, cryopreserved transiently-transfected cells were labeled with LIVE/DEAD Fixable Aqua Dead Cell Stain Kit (ThermoFisher Scientific L34957) on ice for 30 minutes. After a wash with PBS, 2×10⁵ cells were aliquoted per well in 96-well round bottom plates and incubated with 50 μl of culture supernatant on ice for 30 mins. […] Following this secondary incubation, the cells were again washed twice with ice-cold FACS buffer and resuspended in a final volume of 200 μl of FACS buffer. Analysis was performed on a FACS Canto system (BD Biosciences), with sort gates drawn to exclude dead (Aqua-positive) cells. […] The screen was repeated twice, and the numbers reported here represent the ratio of mean fluorescence level in transfected cells over parental cells.

[3] = biological target: T2, cynomolgus (cyno) MS4A6A; test: flow cytometry, hybridoma supernatant, HEK293 transfected with cyno MS4A6A over parental HEK293; Screen 2
Protocol: as §1

[4] = biological target: T3, MS4A6A ECL1 peptide (human); test: peptide ELISA, hybridoma supernatant
T3 construct: the description elsewhere gives ECL1 as 68-84; Human and cyno ECL1 are said to be identical
T3 peptide: SASFSPNFTQVTSTLLNS
Protocol: Anti-MS4A6A hybridoma supernatants were tested for binding to MS4A6A peptides derived from ECL1 (amino acid residues 68-85 of human MS4A6A of SEQ ID NO:1) and ECL2 (amino acid residues 138-185 of human MS4A6A of SEQ ID NO:1) sequences, using an enzyme-linked immunosorbent assay (ELISA). Briefly, 96-well polystyrene plates were coated with 1-10 μg/mL of synthetic free or BSA-conjugated peptides in coating buffer (0.05M carbonate buffer, pH9.6, Millipore Sigma C3041) overnight at 4° C. Coated plates were then blocked with ELISA diluent (PBS+0.5% BSA+0.05% Tween20) for 1-hour, washed 3×300 μL in PBST (PBS+0.05% Tween20, Thermo 28352), and then the antibodies were added at various dilutions (100-1000×) in ELISA diluent. After 30 mins incubation (room temperature, with shaking), the plates were washed 3×300 μl in PBST. A secondary anti-mouse HRP antibody (Jackson Immunoresearch CAT #115-035-003) was added at a 1:1000 dilution in ELISA diluent (50 μL/well) and incubated for 30 minutes at room temperature with shaking. After a final set of washes (3×300 μl in PBST), 50 μL of TMB substrate (BioFx TMBW-1000-01) was added and the reaction was then quenched after 5-10 mins with 50 μL of stop solution (BioFx BSTP-1000-01). The quenched reaction wells were detected for absorbance at […] with a BioTek Synergy Microplate Reader using GENS 2.04 software.

Binder	Kd [1]	koff [1]	kon [1]	ratio of APC MFI on MS4A6A+/HEK parental cells [2] [ratio]	ratio of APC MFI on MS4A6A+/HEK parental cells [3] [ratio]	binding result [4]
B1	200 nM	0.001 s⁻¹	5300 M⁻¹ s⁻¹	71.8	136	no binding
B2	76 nM and 86 nM	0.00038 s⁻¹ and 0.00043 s⁻¹	5000 M⁻¹ s⁻¹	3.8	8.4	no binding
B3	–	–	–	8.6	61.7	no binding
B4	290 nM	0.0011 s⁻¹	3900 M⁻¹ s⁻¹	12.6	84	no binding
B5	180 nM	0.00049 s⁻¹	2700 M⁻¹ s⁻¹	4.1	20.3	no binding
B6	180 nM and 150 nM	0.00097 s⁻¹ and 0.00049 s⁻¹	5500 M⁻¹ s⁻¹ and 3400 M⁻¹ s⁻¹	14.4	28.5	no binding
B7	160 nM and 130 nM	0.00081 s⁻¹ and 0.00067 s⁻¹	5200 M⁻¹ s⁻¹ and 5100 M⁻¹ s⁻¹	40.3	45.5	no binding
B8	170 nM and 150 nM	0.00096 s⁻¹ and 0.001 s⁻¹	5700 M⁻¹ s⁻¹ and 6900 M⁻¹ s⁻¹	20.2	59.1	no binding
B9	140 nM and 180 nM	0.00066 s⁻¹ and 0.00092 s⁻¹	4800 M⁻¹ s⁻¹ and 5300 M⁻¹ s⁻¹	24.8	30.3	no binding
B10	390 nM and 250 nM	0.0023 s⁻¹ and 0.0021 s⁻¹	6000 M⁻¹ s⁻¹ and 8400 M⁻¹ s⁻¹	175	68.8	no binding

Source: patent US20220380455A1 (Alector, published 2022)
